Patent publication US20050053993A1, “Uses of an endothelial cell receptor” (priority 2002, published 2005)

Tests used:
[1] = biological target: T1, recombinant human GRP78 (rGRP78) (Homo sapiens, UniProt P11021); assay: Equilibrium dialysis of rGRP78 and 3HK5; format: binding; details: competition dialysis, 2 nM GRP78 and 2 nM 3HK5; mutant up to 25-fold excess of GRP78
T1 construct: host or cells: yeast
Description: FIG. 14A is a graph showing equilibrium dialysis of recombinant GRP78 (rGRP78) and ^3HK5. ^3HK5 was added to one side of an equilibrium chamber at concentrations from 0.1 to 3 nM. 2 nM GRP78 was added to the other side of the chamber with a […] mwco filter between. ^3HK5 was allowed to equilibrate to both side of the chamber for 72 hours at room temperature. The amount of ^3HK5 on the GRP78 side of the chamber was compared to chamber with ^3HK5 alone to obtain the bound verses free rK5 distribution.
FIG. 14B is a graph showing competition binding dialysis rGRP78 and ^3HK5. Experiments were performed with 2 nM GRP78 and 2 nM ^3HK5 using rK5(K82A) mutant and unlabeled rK5 at various concentrations from 0.5 to 50 nM. The amount of ^3HK5 on both sides of the chamber was measured after 72 hours and compared to the control.
Binding of rK5 to rGRP78 was measured using equilibrium dialysis (Kariv I, Cao H, Oldenburg K R. Development of a high throughput equilibrium dialysis method. J Pharm Sci. 2001 May; 90(5):580-87). In the top well of a 96 well equilibrium dialyzer (molecular weight cut off 50K Daltons, Harvard Apparatus, Holliston, M A) 150 μl of 10 nM rGRP78 was added. In the reciprocal (bottom) chamber, 150 μl of increasing concentrations from 0.1 to 50 nM ^3HK5 was added. The chambers were shaken at room temperature for 72 hours. […]

neutrophils = assay: Neutrophil migration; format: cell-based; details: concentrations up to 1000-fold higher than for endothelial cell migration; data not shown
endothelial cells = assay: Binding of labeled K5 to endothelial cells (Scatchard); set-up: species or system human; details: stimulated vs starved cells
Text: FIG. 10A is a graph showing the amount of surface expressed GRP78 on endothelial cells compared to rK5 binding. For all the assays in this figure, 50,000 cells were attached to 96 well plates. Human rK5 potency is highly dependent on the extent of iodination because it contains a readily iodinated tyrosine in its binding sequence. […] However dog K5 has a phenylalanine in this position naturally and is folded and active in these assays. Accordingly ^125IrK5 (dog) was used as a reagent. ^125IrK5 (dog) was added to the wells and incubated at room temperature for 1 hour. After 1 hour the cells were washed and the amount of I^125IrK5 (dog) bound was counted.
FIG. 11 is a graph comparing the binding of rK5 to starved, quiescent endothelial cells with that of endothelial cells stimulated by VEGF/bFGF. […] The number of counts remaining bound to the cells after extensive washing determined total amount of rK5 bound.
Binding of human ^125IrK5 to Endothelial Cells: Tritium-labeled rK5 was added to monolayers of 50,000 HMVEC cells that were either starved or stimulated for 16 hours by 15 ng/ml bFGF and 5 ng/ml VEGF in 96 well plates. […] After 1 hour the cells were washed and lysed with M-Per (Pierce, Racine, Wis.) and the amount of ^125IK5 (dog) bound was counted. […] Cells were washed and the amount of bound ^125IK5 (dog) bound was counted. […]

D54 = assay: Tumor cell proliferation, D54; format: cell-based, human; details: D54, 72 hours
Description: Cell Proliferation Assay. The effect of rK5 and rK5 peptides on endothelial cells were assessed using a proliferation assay with 1% BSA and 3 ng/ml bFGF in serum-free media. Relative cell numbers in each well of a 96 well microplate after incubation for 72 hours in the absence or presence of inhibitors were determined by using the AQueous cell proliferation assay (Promega, San Luis Obispo, Calif.). For all other cell lines tested for proliferation, minimal growth media was used (Cao, Y., Ji, R., Davidson, D., Schaller, J., Marti, D., Sohndel, S., McCance, S., O'Reilly, M., Llinas, M., and Folkman, J. Kringle domains of human angiostatin. Characterization of the anti-proliferative activity on endothelial cells. (1996) J. Biol. Chem. 271, 29461-29467). Results are presented as the percent inhibition of control cell (bFGF-induced) proliferation.

T1 sequence (P11021 19-654): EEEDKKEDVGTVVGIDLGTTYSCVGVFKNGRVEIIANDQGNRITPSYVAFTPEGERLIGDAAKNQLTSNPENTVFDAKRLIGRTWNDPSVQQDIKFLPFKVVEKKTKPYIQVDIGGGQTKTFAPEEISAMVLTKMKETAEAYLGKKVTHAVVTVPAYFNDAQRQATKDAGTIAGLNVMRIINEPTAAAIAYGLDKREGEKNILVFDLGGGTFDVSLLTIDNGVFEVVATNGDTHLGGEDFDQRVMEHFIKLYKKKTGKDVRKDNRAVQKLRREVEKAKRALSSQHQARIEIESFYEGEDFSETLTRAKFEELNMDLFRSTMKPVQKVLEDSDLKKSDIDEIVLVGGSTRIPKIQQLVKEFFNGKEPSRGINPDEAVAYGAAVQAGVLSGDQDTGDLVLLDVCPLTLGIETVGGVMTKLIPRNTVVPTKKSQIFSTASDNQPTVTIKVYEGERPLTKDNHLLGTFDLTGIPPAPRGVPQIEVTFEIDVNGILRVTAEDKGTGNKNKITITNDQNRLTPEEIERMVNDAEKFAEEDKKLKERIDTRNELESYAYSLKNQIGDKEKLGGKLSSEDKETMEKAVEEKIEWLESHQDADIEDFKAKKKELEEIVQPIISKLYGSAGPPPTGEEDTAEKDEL

B1: rK5: recombinant kringle 5 fragment of human plasminogen (residues 450-543), expressed in E. coli or yeast (protein)
chain: LLPDVETPSEEDCMFGNGKGYRGKRATTVTGTPCQDWAAQEPHRHSIFTPETNPRAGLEKNYCRNPDGDVGGPWCYTTNPRKLYDYCDVPQCAA
[1]
  blocking of 3HK5 binding to rGRP78: blocked
neutrophils
  inhibition of migration of neutrophils: failed to inhibit
Endothelial cells
  binding to stimulated endothelial cells upregulated as compared to starved cells: 4-10 fold
D54
  IC50 values for cell proliferation: >100 µg/mL
